# Data reported in IntAct's records for PubMed 17558407.
# B1: Nephrocystin-4 (Homo sapiens), O75161 (parent)
# chain: MNDWHRIFTQNVLVPPHPQRARQPWKESTAFQCVLKWLDGPVIRQGVLEVLSEVECHLRVSFFDVTYRHFFGRTWKTTVKPTKRPPSRIVFNEPLYFHTSLNHPHIVAVVEVVAEGKKRDGSLQTLSCGFGILRIFSNQPDSPISASQDKRLRLYHGTPRALLHPLLQDPAEQNRHMTLIENCSLQYTLKPHPALEPAFHLLPENLLVSGLQQIPGLLPAHGESGDALRKPRLQKPITGHLDDLFFTLYPSLEKFEEELLELHVQDHFQEGCGPLDGGALEILERRLRVGVHNGLGFVQRPQVVVLVPEMDVALTRSASFSRKVVSSSKTSSGSQALVLRSRLRLPEMVGHPAFAVIFQLEYVFSSPAGVDGNAASVTSLSNLACMHMVRWAVWNPLLEADSGRVTLPLQGGIQPNPSHCLVYKVPSASMSSEEVKQVESGTLRFQFSLGSEEHLDAPTEPVSGPKVERRPSRKPPTSPSSPPAPVPRVLAAPQNSPVGPGLSISQLAASPRSPTQHCLARPTSQLPHGSQASPAQAQEFPLEAGISHLEADLSQTSLVLETSIAEQLQELPFTPLHAPIVVGTQTRSSAGQPSRASMVLLQSSGFPEILDANKQPAEAVSATEPVTFNPQKEESDCLQSNEMVLQFLAFSRVAQDCRGTSWPKTVYFTFQFYRFPPATTPRLQLVQLDEAGQPSSGALTHILVPVSRDGTFDAGSPGFQLRYMVGPGFLKPGERRCFARYLAVQTLQIDVWDGDSLLLIGSAAVQMKHLLRQGRPAVQASHELEVVATEYEQDNMVVSGDMLGFGRVKPIGVHSVVKGRLHLTLANVGHPCEQKVRGCSTLPPSRSRVISNDGASRFSGGSLLTTGSSRRKHVVQAQKLADVDSELAAMLLTHARQGKGPQDVSRESDATRRRKLERMRSVRLQEAGGDLGRRGTSVLAQQSVRTQHLRDLQVIAAYRERTKAESIASLLSLAITTEHTLHATLGVAEFFEFVLKNPHNTQHTVTVEIDNPELSVIVDSQEWRDFKGAAGLHTPVEEDMFHLRGSLAPQLYLRPHETAHVPFKFQSFSAGQLAMVQASPGLSNEKGMDAVSPWKSSAVPTKHAKVLFRASGGKPIAVLCLTVELQPHVVDQVFRFYHPELSFLKKAIRLPPWHTFPGAPVGMLGEDPPVHVRCSDPNVICETQNVGPGEPRDIFLKVASGPSPEIKDFFVIIYSDRWLATPTQTWQVYLHSLQRVDVSCVAGQLTRLSLVLRGTQTVRKVRAFTSHPQELKTDPKGVFVLPPRGVQDLHVGVRPLRAGSRFVHLNLVDVDCHQLVASWLVCLCCRQPLISKAFEIMLAAGEGKGVNKRITYTNPYPSRRTFHLHSDHPELLRFREDSFQVGGGETYTIGLQFAPSQRVGEEEILIYINDHEDKNEEAFCVKVIYQ
# B2: Protein fantom (Homo sapiens), Q68CZ1-2 (parent)
# chain: MSGPTDETAGDLPVKDTGLNLFGMGGLQETSTTRTMKSRQAVSRVSREELEDRFLRLHDENILLKQHARKQEDKIKRMATKLIRLVNDKKRYERVGGGPKRLGRDVEMEEMIEQLQEKVHELEKQNETLKNRLISAKQQLQTQGYRQTPYNNVQSRINTGRRKANENAGLQECPRKGIKFQDADVAETPHPMFTKYGNSLLEEARGEIRNLENVIQSQRGQIEELEHLAEILKTQLRRKENEIELSLLQLREQQATDQRSNIRDNVEMIKLHKQLVEKSNALSAMEGKFIQLQEKQRTLRISHDALMANGDELNMQLKEQRLKCCSLEKQLHSMKFSERRIEELQDRINDLEKERELLKENYDKLYDSAFSAAHEEQWKLKEQQLKVQIAQLETALKSDLTDKTEILDRLKTERDQNEKLVQENRELQLQYLEQKQQLDELKKRIKLYNQENDINADELSEALLLIKAQKEQKNGDLSFLVKVDSEINKDLERSMRELQATHAETVQELEKTRNMLIMQHKINKDYQMEVEAVTRKMENLQQDYELKVEQYVHLLDIRAARIHKLEAQLKDIAYGTKQYKFKPEIMPDDSVDEFDETIHLERGENLFEIHINKVTFSSEVLQASGDKEPVTFCTYAFYDFELQTTPVVRGLHPEYNFTSQYLVHVNDLFLQYIQKNTITLEVHQAYSTEYETIAACQLKFHEILEKSGRIFCTASLIGTKGDIPNFGTVEYWFRLRVPMDQAIRLYRERAKALGYITSNFKGPEHMQSLSQQAPKTAQLSSTDSTDGNLNELHITIRCCNHLQSRASHLQPHPYVVYKFFDFADHDTAIIPSSNDPQFDDHMYFPVPMNMDLDRYLKSESLSFYVFDDSDTQENIYIGKVNVPLISLAHDRCISGIFELTDHQKHPAGTIHVILKWKFAYLPPSGSITTEDLGNFIRSEEPEVVQRLPPASSVSTLVLAPRPKPRQRLTPVDKKVSFVDIMPHQSDVSQEGSVDEVKENTEKMQQGKDDVSLLSEGQLAEQSLASSEDETEITEDLEPEVEEDMSASDSDDCIIPGPISKNIKQPSEKIRIEIIALSLNDSQVTMDDTIQRLFVECRFYSLPAEETPVSLPKPKSGQWVYYNYSNVIYVDKENNKAKRDILKAILQKQEMPNRSLRFTVVSDPPEDEQDLECEDIGVAHVDLADMFQEGRDLIEQNIDVFDARADGEGIGKLRVTVEALHALQSVYKQYRDDLEA
# partner: B1 chain
# Variants of: B1
# Details: with RPGRIP1L
row,Variant,effect of a mutation on the interaction
1,G754R,decreasing interaction

# Variants of: B2
# Details: with nphp4_human NPHP4, O75161
row,Variant,effect of a mutation on the interaction
1,T615P,decreasing interaction
